Reference: PMC11953334, “Substrates bind to residues lining the ring of asymmetrically engaged bacterial proteasome activator Bpa” (Nature Communications, 2025)

Experiments:
[1] = molecular target: full-length 20S proteasome core particle, β-subunit T1A inactive variant (M. tuberculosis H37Rv) (UniProt P9WHU1); test: cryo-EM structure
[2] = molecular target: full-length 20S proteasome core particle, β-subunit T1A inactive variant (M. tuberculosis H37Rv) (UniProt P9WHU1); test: negative stain EM

Substance | percent of core particles capped by Bpa on both ends [1] | percent of proteasomes doubly capped [2] | percent of proteasomes not associated with Bpa [2] | percent of proteasomes singly capped [2] | percent of proteasomes uncapped [2]
bacterial proteasome activator Bpa, full-length, wild-type (from UniProt P9WKX3 1-174) (natural protein) | > 90% | > 80% | < 1% | – | –
covalent dimer of C-terminally truncated Bpa and full-length Bpa (BpaΔC-Bpa) (from UniProt P9WKX3) | – | – | – | 27% | 73%
